Details: Moniliophthora perniciosa, pH 7.2, Thermal, CD, sodium phosphate buffer 4mM, whole UniProt chain shown

B1: wild type, A5H7H0 (protein)
chain: MQLQNFLSIVLLVVSGAIAGTVMDHDKIAKLPASGSPLETKFQPQLHIGNGCHSYPAVDAQGNWSGGLKPTGAPSAACKDTSKAQTYVRSATFQGKTALVYAWYMPKDEISTGIGHRHDWEGAVVFLNSDTQQIDGVAASAHGKWRKYPNPGGANIDDTHVKLQYSAEPVINSHALDLTDKGGDLPTLASWEGMGADARAAINERSHWGDANPPIADSLIGSSLSGAWMW
**Q.** For B1, which Tm (EDTA CaCl2 62.5 micro M 120 micro M) is on record?
**A.** 41.6 °C

**Q.** And the Tm (EDTA CaCl2 with ZnCl2 62.5 micro M 120 micro M 120 micro M)?
**A.** 40 °C

**Q.** And the Tm (EDTA ZnCl2 62.5 micro M 120 micro M)?
**A.** 41.2 °C

— FireProtDB (doi:10.1021/bi201253b)
